The results in this text go back to patent publication US20180346932A1.

The target in the assay is dCas9-GCN4 fusion protein of System 3 (dCas9 with 5 copies of GCN4 peptides, linker of 22 amino acids) (S. pyogenes) (UniProt Q99ZW2). Kind of assay: cell-based or functional assay.

GCN4 peptide antibody (scFv)-superfolder green fluorescent protein (sfGFP)-TET1CD fusion protein, sequence (Q8NFU7 1418-2136): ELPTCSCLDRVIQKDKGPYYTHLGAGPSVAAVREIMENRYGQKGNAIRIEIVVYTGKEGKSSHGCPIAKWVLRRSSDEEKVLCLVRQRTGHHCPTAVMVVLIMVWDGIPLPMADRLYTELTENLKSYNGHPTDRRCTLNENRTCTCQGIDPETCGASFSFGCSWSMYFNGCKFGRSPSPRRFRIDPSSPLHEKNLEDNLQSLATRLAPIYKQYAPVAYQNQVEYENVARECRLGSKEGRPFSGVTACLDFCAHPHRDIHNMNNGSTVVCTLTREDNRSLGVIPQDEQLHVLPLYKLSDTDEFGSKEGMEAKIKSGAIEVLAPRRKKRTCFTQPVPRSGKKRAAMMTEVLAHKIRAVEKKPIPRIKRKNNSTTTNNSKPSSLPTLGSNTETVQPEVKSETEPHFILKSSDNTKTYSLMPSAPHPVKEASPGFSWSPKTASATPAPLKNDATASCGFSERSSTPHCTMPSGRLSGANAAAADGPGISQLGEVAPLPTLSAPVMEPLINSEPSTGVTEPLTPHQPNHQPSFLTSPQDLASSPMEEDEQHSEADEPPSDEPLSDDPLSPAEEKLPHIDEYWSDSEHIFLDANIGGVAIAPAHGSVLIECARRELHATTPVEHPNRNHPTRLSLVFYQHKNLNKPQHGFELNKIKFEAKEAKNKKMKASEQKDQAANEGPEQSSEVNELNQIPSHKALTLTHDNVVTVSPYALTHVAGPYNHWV

For the substance “GCN4 peptide antibody (scFv)-superfolder green fluorescent protein (sfGFP)-TET1CD fusion protein (from UniProt Q8NFU7 1418-2136)”, the demethylation of the Gfap STAT3 site in ESCs (COBRA, standardized demethylation percentage) amounted to 43%.
